The values that follow come from US20130177556.

In data set [1] the target is EGFR extracellular domain (EC-EGFR) (Homo sapiens) (UniProt P00533). Briefly: filter. To be noted: 2'-F pyrimidines (all C and U); PBS, 0.01% BSA, 37 C, 15 min; scrambled background subtracted.
Data set [2] has as its target EGFR on A549 cells (Homo sapiens) (UniProt P00533).
For data set [3] the target is unchanged. Briefly: cell_activity. To be noted: 2'-F pyrimidines (all C and U); inhibition of EGF-dependent EGFR phosphorylation in A549, 200 nM aptamer.

Read-outs that look alike come from different tables or passages of the source.

The Kd is the constant that tells how readily two partners part at equilibrium. In the case of “GCCUUAGUAACGUGCUUUGAUGUCGAUUCGACAGGAGGC [CL4 42-81]”, the Kd came out at 0.01 µM in data set [1]; 0.038 µM in data set [2] (2'-F pyrimidines (all C and U), binding to whole A549 cells, radiolabelled aptamer). This sequence also registered an activity in data set [3] of 60 % inhibition.
Turning to “GGGAGACAAGAAUAAACGCUCAACGACACGUUGCCAGCCGGAGCCUUAGUAACGUGCUUUGAUGUCGAUUCGACAGGAGGCUCACAACAGGC [CL4]”, in data set [2] (2'-F pyrimidines, Kd stated for full-length CL4, whole A549 cells implied), the Kd turned out to be 0.046 µM.
